Test results reported in patent US20030095983A1 (ZymoGenetics, published 2003).

T1: glycoprotein hormone beta 5 (GPHB5), human, beta subunit of CGH (human, UniProt Q86YW7 25-130)
T1 construct: Secreted from CHO 180 cells
T1 sequence: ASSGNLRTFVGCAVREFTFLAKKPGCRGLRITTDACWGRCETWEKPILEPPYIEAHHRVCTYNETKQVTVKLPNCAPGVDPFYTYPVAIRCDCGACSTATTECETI


Tests used:
[1] = target: TSH receptor (TSHR) on differentiated murine 3T3 L1 adipocytes (murine, UniProt P47750 22-764); experiment: cell-based or functional assay
Sequence of TSH receptor (TSHR) on differentiated murine 3T3 L1 adipocytes (P47750 22-764): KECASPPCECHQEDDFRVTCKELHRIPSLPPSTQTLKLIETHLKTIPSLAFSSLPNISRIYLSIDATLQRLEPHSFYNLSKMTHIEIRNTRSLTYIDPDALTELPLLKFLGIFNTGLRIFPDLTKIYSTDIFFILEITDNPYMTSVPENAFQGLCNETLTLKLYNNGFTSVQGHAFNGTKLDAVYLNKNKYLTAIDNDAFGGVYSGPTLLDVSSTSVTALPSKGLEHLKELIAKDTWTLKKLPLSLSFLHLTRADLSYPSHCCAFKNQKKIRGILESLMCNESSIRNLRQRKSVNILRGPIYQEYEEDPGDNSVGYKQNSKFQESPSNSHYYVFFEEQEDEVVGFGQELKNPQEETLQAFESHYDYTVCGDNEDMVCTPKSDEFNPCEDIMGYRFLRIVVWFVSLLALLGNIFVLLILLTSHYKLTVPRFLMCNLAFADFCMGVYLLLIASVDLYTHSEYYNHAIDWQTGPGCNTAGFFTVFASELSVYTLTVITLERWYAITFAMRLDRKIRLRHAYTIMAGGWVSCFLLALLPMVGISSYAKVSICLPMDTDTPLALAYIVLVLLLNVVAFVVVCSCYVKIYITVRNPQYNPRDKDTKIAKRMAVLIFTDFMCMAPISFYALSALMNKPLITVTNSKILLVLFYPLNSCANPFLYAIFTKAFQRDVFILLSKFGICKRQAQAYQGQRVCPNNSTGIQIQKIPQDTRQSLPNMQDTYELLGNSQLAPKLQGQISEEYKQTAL

[2] = target: TSH receptor (TSHR) on primary human adipocytes (human, UniProt P16473 21-764); experiment: cell-based or functional assay
Sequence of TSH receptor (TSHR) on primary human adipocytes (P16473 21-764): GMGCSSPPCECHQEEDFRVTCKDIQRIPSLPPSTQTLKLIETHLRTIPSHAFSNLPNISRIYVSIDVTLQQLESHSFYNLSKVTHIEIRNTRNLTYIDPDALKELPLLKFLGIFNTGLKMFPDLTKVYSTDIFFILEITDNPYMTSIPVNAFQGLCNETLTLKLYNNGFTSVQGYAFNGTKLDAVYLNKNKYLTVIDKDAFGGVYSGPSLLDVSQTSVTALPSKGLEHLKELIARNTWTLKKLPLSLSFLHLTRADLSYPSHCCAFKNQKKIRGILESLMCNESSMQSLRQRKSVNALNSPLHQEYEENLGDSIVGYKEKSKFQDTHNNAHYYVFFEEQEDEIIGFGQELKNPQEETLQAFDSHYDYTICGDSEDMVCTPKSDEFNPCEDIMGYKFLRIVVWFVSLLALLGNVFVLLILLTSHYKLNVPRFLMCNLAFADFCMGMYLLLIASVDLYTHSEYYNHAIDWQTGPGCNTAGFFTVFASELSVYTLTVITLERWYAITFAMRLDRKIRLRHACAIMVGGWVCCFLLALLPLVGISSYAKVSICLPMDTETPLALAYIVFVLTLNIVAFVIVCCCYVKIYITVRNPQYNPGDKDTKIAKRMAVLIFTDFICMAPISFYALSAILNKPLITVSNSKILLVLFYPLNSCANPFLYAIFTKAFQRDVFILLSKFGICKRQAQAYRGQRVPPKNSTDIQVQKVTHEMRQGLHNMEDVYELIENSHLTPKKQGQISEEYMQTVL

[3] = target: T1, glycoprotein hormone beta 5 (GPHB5), …; experiment: co-expression in CHO cells; secreted heterodimer

induction of luciferase expression (CRE-luciferase reporter, cAMP) [1]	induction of the reporter gene (CRE-luciferase reporter, cAMP) [2]	binding result [3]	Binder
27 fold	14 fold		corticotroph-derived glycoprotein hormone (CGH), human recombinant, non-covalent heterodimer of GPHA2 and GPHB5 (ligand) chain 1: QEAVIPGCHLHPFNVTVRSDRQGTCQGSHVAQACVGHCESSAFPSRYSVLVASGYRHNITSVSQCCTISGLKKVKVQLQCVGSRREELEIFTARACQCDMCRLSRY chain 2: ASSGNLRTFVGCAVREFTFLAKKPGCRGLRITTDACWGRCETWEKPILEPPYIEAHHRVCTYNETKQVTVKLPNCAPGVDPFYTYPVAIRCDCGACSTATTECETI
		binds	glycoprotein hormone alpha2 (GPHA2), human, alpha subunit of CGH (ligand, Secreted from CHO 180 cells; also called Zsig51) QEAVIPGCHLHPFNVTVRSDRQGTCQGSHVAQACVGHCESSAFPSRYSVLVASGYRHNITSVSQCCTISGLKKVKVQLQCVGSRREELEIFTARACQCDMCRLSRY
